Our source for the Ki values is US11555055B2, “Peptide inhibitors of insulin-degrading enzyme” (The Regents of the University of California, priority 2017, dated 2023).

Assay [1] concerns the target T1, IDE (Homo sapiens, UniProt P14735).
T1 construct: made in house; host or cells: bacteria
T1 sequence (P14735 1-1019): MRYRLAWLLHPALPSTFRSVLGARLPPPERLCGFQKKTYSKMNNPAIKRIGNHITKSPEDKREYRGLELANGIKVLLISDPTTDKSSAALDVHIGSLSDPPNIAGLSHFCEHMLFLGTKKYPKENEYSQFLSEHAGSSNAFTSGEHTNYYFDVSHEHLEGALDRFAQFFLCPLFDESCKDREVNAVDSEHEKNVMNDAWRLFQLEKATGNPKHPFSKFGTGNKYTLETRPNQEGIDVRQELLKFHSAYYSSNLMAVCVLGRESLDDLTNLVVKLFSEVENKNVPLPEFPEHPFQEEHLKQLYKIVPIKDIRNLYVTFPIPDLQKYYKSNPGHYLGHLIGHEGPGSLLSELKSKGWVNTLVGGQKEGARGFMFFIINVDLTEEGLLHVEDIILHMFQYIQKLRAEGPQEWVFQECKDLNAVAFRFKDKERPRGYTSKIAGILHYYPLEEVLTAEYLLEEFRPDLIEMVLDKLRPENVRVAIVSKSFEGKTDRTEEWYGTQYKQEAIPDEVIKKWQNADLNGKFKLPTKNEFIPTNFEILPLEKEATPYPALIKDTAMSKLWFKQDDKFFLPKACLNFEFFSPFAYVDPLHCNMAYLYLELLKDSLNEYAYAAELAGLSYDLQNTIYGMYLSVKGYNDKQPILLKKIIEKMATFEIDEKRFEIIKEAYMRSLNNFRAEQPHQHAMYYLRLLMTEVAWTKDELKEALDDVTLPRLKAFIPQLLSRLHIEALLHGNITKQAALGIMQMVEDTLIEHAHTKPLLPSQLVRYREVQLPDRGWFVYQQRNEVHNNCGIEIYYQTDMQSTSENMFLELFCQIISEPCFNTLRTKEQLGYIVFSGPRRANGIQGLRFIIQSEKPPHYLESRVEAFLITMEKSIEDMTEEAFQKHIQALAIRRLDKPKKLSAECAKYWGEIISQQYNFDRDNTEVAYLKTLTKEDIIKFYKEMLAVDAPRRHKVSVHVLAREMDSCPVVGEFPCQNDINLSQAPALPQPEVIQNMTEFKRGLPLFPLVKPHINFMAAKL
Description: IDE protease activity assay with FRET1 substrate. The assay is classed as biochemical. Particulars: Ki converted from IC50 with the Cheng-Prusoff equation.

Assay [2] has as its target T1, IDE. Description: IDE protease activity assay, insulin degradation quantified by ELISA. Particulars: substrate recombinant human insulin; Ki converted from IC50 with the Cheng-Prusoff equation; read-out: Ki Insulin. The class given is biochemical. Here is the method:
To assess the extent to which these peptide sequences inhibit IDE, we quantified their potency in protease activity assays using recombinant human IDE and two different substrates: FRET1, a fluorogenic peptide (45), and recombinant human insulin.
Degradation Assays—IDE activity was quantified by monitoring the degradation of (7-methoxycoumarin-4-yl)acetic acid-[…](2,4-dinitrophenyl) (FRET1, 5 μM) (49,55), fluoresceinated and biotinylated amyloid β-protein (FAβB; 500 nM) or recombinant human insulin (50 nM) in PBS supplemented with 0.05% BSA. FRET1 degradation was measured by changes in fluorescence (λex=340 nm, λem=420 nm); FAβB degradation was monitored by fluorescence polarization (λex=488 nm, λem=525 nm), as described (56); and insulin degradation was quantified by ELISA. In vitro activity assays incorporated recombinant human IDE (1 nM) purified from bacteria (35). For quantitation of insulin degradation in primary murine skin fibroblasts, cells (1×10^5/well) were plated in 96-well plates and maintained in DMEM supplemented with 10% fetal bovine serum (FBS), 2 mM glutamine, penicillin and streptomycin. After addition of insulin (10 nM or 100 nM), samples of conditioned medium were removed daily and quickly frozen, then insulin levels were quantified in parallel by ELISA according to manufacturer's recommendations (Crystal Chem, Downers Grove, Ill., USA). Assessment of the activity of P12-3A against a variety of matrix-metalloproteases was conducted using the Matrix Metalloproteinase (MMP) Inhibitor Profiling Kit, Fluorometric RED (Enzo Life Sciences, Inc., Farmingdale, N.Y., USA) according to manufacturer's recommendations using the broad-spectrum MMP inhibitor, NNGH, as a positive control.

For assay [3], the target named is T2, recombinant human insulin-degrading enzyme (IDE) (human, UniProt P14735 42-1019, limits assumed).
T2 construct: Used at 1 nM in the in vitro activity assays; immobilised on plates for phage panning
T2 sequence (looked up): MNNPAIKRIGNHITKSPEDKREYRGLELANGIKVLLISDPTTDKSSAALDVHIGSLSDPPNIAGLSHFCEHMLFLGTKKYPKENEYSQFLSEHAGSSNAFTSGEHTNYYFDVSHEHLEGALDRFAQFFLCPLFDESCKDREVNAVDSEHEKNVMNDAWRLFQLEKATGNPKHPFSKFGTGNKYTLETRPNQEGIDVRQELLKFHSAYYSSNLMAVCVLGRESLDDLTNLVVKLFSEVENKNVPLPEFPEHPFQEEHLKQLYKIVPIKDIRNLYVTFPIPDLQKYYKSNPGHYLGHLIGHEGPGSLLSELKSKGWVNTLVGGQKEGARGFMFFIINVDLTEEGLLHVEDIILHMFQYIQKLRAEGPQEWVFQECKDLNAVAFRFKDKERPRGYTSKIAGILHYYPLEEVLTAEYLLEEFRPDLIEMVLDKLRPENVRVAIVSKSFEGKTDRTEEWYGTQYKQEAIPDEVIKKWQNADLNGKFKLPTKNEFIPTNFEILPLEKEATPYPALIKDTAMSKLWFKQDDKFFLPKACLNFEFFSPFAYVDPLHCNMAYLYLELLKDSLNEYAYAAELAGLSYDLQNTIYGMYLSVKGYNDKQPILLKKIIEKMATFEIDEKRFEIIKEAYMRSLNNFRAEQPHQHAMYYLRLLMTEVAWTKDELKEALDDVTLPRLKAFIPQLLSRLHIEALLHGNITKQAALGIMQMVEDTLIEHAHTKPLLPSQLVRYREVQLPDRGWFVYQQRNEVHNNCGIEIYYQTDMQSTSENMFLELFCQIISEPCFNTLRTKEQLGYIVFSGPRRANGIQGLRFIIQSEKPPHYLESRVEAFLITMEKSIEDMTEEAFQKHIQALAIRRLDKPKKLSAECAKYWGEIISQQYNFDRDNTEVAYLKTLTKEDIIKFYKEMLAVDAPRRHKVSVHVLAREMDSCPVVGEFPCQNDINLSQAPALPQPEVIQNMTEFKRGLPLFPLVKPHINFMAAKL
Nature of the assay: IDE activity assay, FRET1 substrate.

The target of assay [4] is T2, recombinant human insulin-degrading …. Description: IDE activity assay, insulin substrate (ELISA).

Where a SMILES comes first, the peptide text is derived from it. Bridges are numbered along the chain shown (N, C = ends). Where no end group is shown, it is not given here.

Consider `CC[C@H](C)[C@@H]1NC(=O)[C@H](CO)NC(=O)[C@H](Cc2c[nH]c3ccccc23)NC(=O)[C@H](Cc2c[nH]c3ccccc23)NC(=O)[C@H](CO)NC(=O)[C@@H](NC(=O)[C@H](C)N)CSSC[C@@H](C(=O)NCC(=O)O)NC(=O)[C@H](CC(C)C)NC(=O)[C@H](Cc2c[nH]cn2)NC1=O` [Peptide C7C-1] (H-ACSWWSIHLCG-OH; disulfide 2-10), for which the Ki on IDE [1] came to 112 ± 6 µM; at IDE [2] it was 3.7 ± 0.7 µM.
For `CC(C)[C@H](N)C(=O)N[C@@H](Cc1c[nH]cn1)C(=O)N[C@@H](Cc1c[nH]c2ccccc12)C(=O)N[C@@H](CC(=O)O)C(=O)N[C@@H](Cc1ccccc1)C(=O)N[C@@H](CCCNC(=N)N)C(=O)N[C@@H](CCC(N)=O)C(=O)N[C@@H](Cc1c[nH]c2ccccc12)C(=O)N[C@@H](Cc1c[nH]c2ccccc12)C(=O)N[C@@H](CCC(N)=O)C(=O)N1CCC[C@H]1C(=O)N[C@@H](CO)C(N)=O` [Peptide P12-1A] (H-VHWDFRQWWQPS-NH2) the same measures were 5 ± 0.3 µM and 1.3 ± 0.2 µM.
On to `CC(C)[C@H](N)C(=O)N[C@@H](Cc1c[nH]cn1)C(=O)N[C@@H](Cc1c[nH]c2ccccc12)C(=O)N[C@@H](CC(=O)O)C(=O)N[C@@H](Cc1ccccc1)C(=O)N[C@@H](CCCNC(=N)N)C(=O)N[C@@H](CCC(N)=O)C(=O)N[C@@H](Cc1c[nH]c2ccccc12)C(N)=O` [Peptide P12-1B] (H-VHWDFRQW-NH2), for which the values for the Ki on IDE [1] and on IDE [2] were 41 ± 6.4 µM and 7 ± 1.7 µM, respectively.
Take `CC(C)[C@H](N)C(=O)N[C@@H](Cc1c[nH]cn1)C(=O)N[C@@H](Cc1c[nH]c2ccccc12)C(=O)N[C@@H](CC(=O)O)C(=O)N[C@@H](Cc1ccccc1)C(=O)N[C@@H](CCCNC(=N)N)C(=O)N[C@@H](CCC(N)=O)C(=O)N[C@@H](Cc1c[nH]c2ccccc12)C(=O)N[C@@H](Cc1c[nH]c2ccccc12)C(=O)N[C@@H](CCC(N)=O)C(=O)N1CCC[C@H]1C(=O)N[C@@H](CO)C(=O)O` [Peptide P12-1] (H-VHWDFRQWWQPS-OH): the inhibitory constant (Ki) at IDE [1] turned out to be 7.7 ± 0.7 µM; at IDE [2], 0.8 ± 0.04 µM.
In the case of `CC(C)C[C@H](NC(=O)[C@H](CO)NC(=O)[C@@H](N)CCC(N)=O)C(=O)N1CCC[C@H]1C(=O)N[C@@H](Cc1c[nH]c2ccccc12)C(=O)N[C@@H](CS)C(=O)N[C@@H](Cc1ccc(O)cc1)C(=O)N1CCC[C@H]1C(N)=O` [Peptide P12-3B] (H-QSLPWCYP-NH2), the inhibition constant Ki on IDE [1] was 39 ± 20 µM.
For the molecule `CC[C@H](C)[C@H](NC(=O)[C@@H]1CCCN1C(=O)[C@H](CO)NC(=O)[C@@H](N)Cc1c[nH]c2ccccc12)C(=O)N[C@@H](CO)C(=O)NCC(=O)N[C@@H](CCCCN)C(=O)N[C@@H](Cc1ccccc1)C(=O)N[C@@H](Cc1ccccc1)C(=O)N[C@@H](CCC(N)=O)C(=O)N[C@@H](CCCNC(=N)N)C(=O)N[C@@H](Cc1ccccc1)C(N)=O` [Peptide P12-4A] (H-WSPISGKFFQRF-NH2), the Ki at IDE [1] came to 4.2 ± 1.3 µM; on IDE [2], 2.6 ± 0.7 µM.
Turning to LNFPMPSRPHSS [P12-2], the Ki in assay [3] is over 100 µM; in assay [4], over 10 µM.
The like results for LNFPMPSR-NH2 [P12-2B] were, in that order, over 500 µM and over 10 µM.
For LNFPMPSRPHSS-NH2 [P12-2A] the same measures were over 100 µM and over 10 µM.
Ac-MPSRPHSS [P12-2C]: the Ki in assay [3] is over 500 µM; in assay [4], over 10 µM.

B1: C7C-2A (peptide)
peptide: ACNAGHLSQCG-NH2
modifications: disulfide 2-10 (inferred)
notes: also called amidated derivative of C7C-2
B1: the values for the inhibitory constant (Ki) in assay [3] and in assay [4] were over 500 µM and over 10 µM, respectively.
On to ACSWWSIHLCGGG (disulfide 2-10 (inferred)) [C7C-1B], for which the Ki in assay [3] was over 100 µM; in assay [4], over 10 µM.
Consider WSPISGKF-NH2 [P12-4B], for which the values for the Ki in assay [3] and in assay [4] were over 500 µM and over 10 µM, respectively.
For Ac-SGKFFQRF [P12-4C] the same measures were over 500 µM and over 10 µM.

B2: P12-3B (peptide)
peptide: QSLPWCYP-NH2
notes: also called C-terminally truncated variant of P12-3
As for B2, the Ki in assay [4] is over 10 µM.
Take Ac-FPMPSRPH-NH2 [P12-2D]: the inhibitory constant (Ki) in assay [3] is over 500 µM; in assay [4], over 10 µM.

B3: P12-3C (peptide)
peptide: Ac-WCYPHCVT-OH
modifications: cysteine pairing not given here
notes: also called N-terminally truncated variant of P12-3
B3: the Ki in assay [4] was over 10 µM.
Take Ac-PISGKFFQ-NH2 [P12-4D]: the figures for the inhibition constant Ki in assay [3] and in assay [4] were over 500 µM and over 10 µM, respectively.

B4: C7C-2 (peptide)
peptide: ACNAGHLSQCG
modifications: disulfide 2-10 (inferred)
notes: the synthesized peptide has one C-terminal glycine
For B4, the inhibition constant (Ki) in assay [3] is over 500 µM; in assay [4], over 10 µM.
